We go through one molecule from patent US20260185108A1 (Johns Hopkins, published 2026).

For assay [1], the target named is T1, CD63 (endogenous, on WT 293F cells) (UniProt P08962 2-238, limits assumed).
T1 construct: whole, on cells; Compared with the 293F/CD63-/- knockout line as the negative control; also called WT CD63
T1 sequence (looked up): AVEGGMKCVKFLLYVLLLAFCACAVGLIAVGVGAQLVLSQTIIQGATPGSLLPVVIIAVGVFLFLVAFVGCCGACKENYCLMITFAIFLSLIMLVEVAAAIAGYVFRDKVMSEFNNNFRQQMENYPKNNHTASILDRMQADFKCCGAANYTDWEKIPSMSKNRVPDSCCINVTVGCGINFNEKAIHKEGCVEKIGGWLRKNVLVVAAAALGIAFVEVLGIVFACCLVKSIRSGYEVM
The assay can be described thus: flow cytometry of CP05-Cy5 on WT 293F cells against 293F/CD63-/- cells. Here is the method:
(§1) For measurement of surface CD63 abundance and Cy5-CP05 peptide binding, cells were washed in HBSS, released from tissue culture plates using trypsin/EDTA solution, and resuspended at a concentration of 1×10^7 cells per ml in HBSS. Cell suspensions were maintained on ice, diluted to a concentration of 1×10^6 cells per ml, incubated with either (i) fluorescently labeled anti-CD63 antibody (catalog no.: 353006; BioLegend) or (ii) CY5-labeled CP05 peptide (NH2-[…](K/Cy5)-amide; Vivitide; molecular weight=[…]). Following the binding reaction, cells were washed five times in PBS and then examined by flow cytometry on a Beckman CytoFlex flow cytometer set at the appropriate excitation and emission wavelengths. The relative brightness was determined for thousands of individual cells in each cell line using Beckman CytExpert software (version 2.3.1.22) to calculate average brightness and CV as well as to generate scatter plots and histograms.
(§2) To determine whether these mutations led to a drop in the cell surface expression of CD63, cell lines were interrogated: the 293F/CD63^{-/-} cell line, the parental 293F cell line, and the F/YA24 cell line by flow cytometry, using a commercially available fluorescently tagged monoclonal anti-CD63 antibody. […]
A general note: In flow cytometry, cells or beads pass a laser one at a time.

Assay [2] has as its target T2, CD63/Y235A (on F/YA24 cells) (UniProt P08962 2-238, limits assumed).
T2 construct: whole, on cells; F/YA24 cells also carry the endogenous CD63 of 293F cells; also called mutant form of CD63
T2 sequence (looked up): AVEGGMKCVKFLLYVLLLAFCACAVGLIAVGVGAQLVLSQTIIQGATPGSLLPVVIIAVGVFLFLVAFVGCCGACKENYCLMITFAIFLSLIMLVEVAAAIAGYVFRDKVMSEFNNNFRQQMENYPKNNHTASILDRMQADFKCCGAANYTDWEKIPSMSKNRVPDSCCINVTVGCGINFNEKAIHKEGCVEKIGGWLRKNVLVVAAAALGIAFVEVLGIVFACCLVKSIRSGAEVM
The assay can be described thus: flow cytometry of CP05-Cy5 on F/YA24 cells against 293F and 293F/CD63-/- cells. The protocol:
as §1, §2

B1: Cy5-labeled CP05 peptide (NH2-CRHSQMTVTSRL(K/Cy5)-amide) (peptide)
peptide: H-CRHSQMTVTSRLK(Cy5)-NH2
notes: Synthetic peptide (Vivitide); the labeled peptide used in the assay has one more Lys(Cy5) and a C-terminal amide; also called CP05-Cy5; Cy5-CP05 peptide
Consider B1, for which the binding result in assay [1] was “no binding (tested: 0.34 µM and 3.4 µM CP05-Cy5)”; in assay [2], “no binding (tested: 0.34 µM and 3.4 µM CP05-Cy5)”.
